The results in this text go back to patent publication US20240400654A1.

The chains are these.
B1: KB001 mouse Fab VL L34M (Fab, V domains shown)
VH: EVQLKQSGPGLVAPSQSLSITCTVSGFSLSIYSVHWVRQPPGKGLEWLGMIWGGGSSDYNSALKSRLSISKDNSKSQVFLKMNSLQTDDTAMYYCARNGNFYAMDYWGQGTSVTVSS
VL: QIVLTQSPAIMSASLGERVTMTCTASSSVSSSFMHWYQQKPGSSPQLWIYSTSNLASGVPARFSGSGSGTSYSLTISSMEAEDAATYYCHQYHHSPYIYTFGGGTKLEIK
B2: KB001 mouse Fab VL N54D (Fab, V domains shown)
VH: B1 VH
VL: B1 VL with M34L, N54D
B3: KB001 mouse Fab VL L34I (Fab, V domains shown)
VH: B1 VH
VL: B1 VL with M34I
B4: KB001 mouse Fab VL N54F (Fab, V domains shown)
VH: B1 VH
VL: B1 VL with M34L, N54F
B5: KB001 mouse Fab VL L55S (Fab, V domains shown)
VH: B1 VH
VL: B1 VL with M34L, L55S
B6: KB001 mouse Fab VH S30G (Fab, V domains shown)
VH: B1 VH with S30G
VL: B1 VL with M34L
B7: KB001 mouse Fab VL N54A (Fab, V domains shown)
VH: B1 VH
VL: B1 VL with M34L, N54A
B8: KB001 mouse Fab VL S53W (Fab, V domains shown)
VH: B1 VH
VL: B1 VL with M34L, S53W
B9: KB001 mouse Fab VH S61Q (Fab, V domains shown)
VH: B1 VH with S61Q
VL: B1 VL with M34L
B10: KB001 mouse Fab VH S61D (Fab, V domains shown)
VH: B1 VH with S61D
VL: B1 VL with M34L
B11: KB001 mouse Fab VL S53E (Fab, V domains shown)
VH: B1 VH
VL: B1 VL with M34L, S53E
B12: KB001 mouse Fab VL L55K (Fab, V domains shown)
VH: B1 VH
VL: B1 VL with M34L, L55K
B13: KB001 mouse Fab VH S28E (Fab, V domains shown)
VH: B1 VH with S28E
VL: B1 VL with M34L
B14: KB001 mouse Fab VH S28P (Fab, V domains shown)
VH: B1 VH with S28P
VL: B1 VL with M34L
B15: KB001 mouse Fab VL S53L (Fab, V domains shown)
VH: B1 VH
VL: B1 VL with M34L, S53L
B16: KB001 mouse Fab VH S30E (Fab, V domains shown)
VH: B1 VH with S30E
VL: B1 VL with M34L
B17: KB001 mouse Fab VL S53Y (Fab, V domains shown)
VH: B1 VH
VL: B1 VL with M34L, S53Y
B18: KB001 mouse Fab VL N54W (Fab, V domains shown)
VH: B1 VH
VL: B1 VL with M34L, N54W
B19: KB001 mouse Fab VL T52L (Fab, V domains shown)
VH: B1 VH
VL: B1 VL with M34L, T52L
B20: KB001 mouse Fab VL N54K (Fab, V domains shown)
VH: B1 VH
VL: B1 VL with M34L, N54K
B21: KB001 mouse Fab VL L55T (Fab, V domains shown)
VH: B1 VH
VL: B1 VL with M34L, L55T
B22: KB001 mouse Fab VL T52M (Fab, V domains shown)
VH: B1 VH
VL: B1 VL with M34L, T52M
B23: KB001 mouse Fab VL T52R (Fab, V domains shown)
VH: B1 VH
VL: B1 VL with M34L, T52R
B24: KB001 mouse Fab VL S53A (Fab, V domains shown)
VH: B1 VH
VL: B1 VL with M34L, S53A
B25: KB001 mouse Fab VL N54E (Fab, V domains shown)
VH: B1 VH
VL: B1 VL with M34L, N54E
B26: KB001 mouse Fab VL L55H (Fab, V domains shown)
VH: B1 VH
VL: B1 VL with M34L, L55H
B27: KB001 mouse Fab VL L55V (Fab, V domains shown)
VH: B1 VH
VL: B1 VL with M34L, L55V
B28: KB001 mouse Fab VL S53D (Fab, V domains shown)
VH: B1 VH
VL: B1 VL with M34L, S53D
B29: KB001 mouse Fab VH S30N (Fab, V domains shown)
VH: B1 VH with S30N
VL: B1 VL with M34L
B30: KB001 mouse Fab VL N54L (Fab, V domains shown)
VH: B1 VH
VL: B1 VL with M34L, N54L
B31: KB001 mouse Fab VL N54I (Fab, V domains shown)
VH: B1 VH
VL: B1 VL with M34L, N54I
B32: KB001 mouse Fab VL S53R (Fab, V domains shown)
VH: B1 VH
VL: B1 VL with M34L, S53R
B33: KB001 mouse Fab VL L55Q (Fab, V domains shown)
VH: B1 VH
VL: B1 VL with M34L, L55Q
B34: KB001 mouse Fab VH S30Y (Fab, V domains shown)
VH: B1 VH with S30Y
VL: B1 VL with M34L
B35: KB001 mouse Fab VL S53V (Fab, V domains shown)
VH: B1 VH
VL: B1 VL with M34L, S53V
B36: KB001 mouse Fab VL S53C (Fab, V domains shown)
VH: B1 VH
VL: B1 VL with M34L, S53C
B37: KB001 mouse Fab VL T52K (Fab, V domains shown)
VH: B1 VH
VL: B1 VL with M34L, T52K

Where a chain is given by its changes, count along the chain named. Numbers in names are those of the source. Where “and” joins values, the source holds several entries; their conditions need not be identical. Equal entries are not always repeated.

For this assay, the target named is HRgpA-6H (Porphyromonas gingivalis) (UniProt P28784). The assay is described as follows: ELISA, coated HRgpA-6H. In general terms: An ELISA detects its analyte on a solid surface through an enzyme-linked reagent.
Chain of UniProt P28784 (P28784 228-860 limits assumed): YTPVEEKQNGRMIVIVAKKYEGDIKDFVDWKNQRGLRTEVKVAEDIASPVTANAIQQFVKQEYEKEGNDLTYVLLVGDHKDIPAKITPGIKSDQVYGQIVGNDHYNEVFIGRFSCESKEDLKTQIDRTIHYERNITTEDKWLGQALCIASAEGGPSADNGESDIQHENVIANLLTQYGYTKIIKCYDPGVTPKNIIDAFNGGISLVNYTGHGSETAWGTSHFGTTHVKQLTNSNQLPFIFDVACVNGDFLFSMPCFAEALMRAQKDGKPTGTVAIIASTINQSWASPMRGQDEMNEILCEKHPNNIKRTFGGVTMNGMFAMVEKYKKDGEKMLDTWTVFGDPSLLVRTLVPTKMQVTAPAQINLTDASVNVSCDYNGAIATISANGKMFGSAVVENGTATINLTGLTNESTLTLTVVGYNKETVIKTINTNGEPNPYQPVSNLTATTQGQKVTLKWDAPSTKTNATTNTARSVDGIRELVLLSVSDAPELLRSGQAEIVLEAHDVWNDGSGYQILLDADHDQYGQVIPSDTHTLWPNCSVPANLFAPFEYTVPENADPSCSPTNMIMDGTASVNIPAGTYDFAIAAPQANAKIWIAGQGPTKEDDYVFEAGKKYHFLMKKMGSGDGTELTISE
For B1, the OD450 nm is 0.736 and 0.741 and 0.714; the Ratio OD(Variant)/OD(WT) is 0.971 and 0.978 and 0.911.

For B2, the OD450 nm turned out to be 0.725 and the Ratio OD(Variant)/OD(WT) stood at 0.925.

Regarding B3, the OD450 nm amounted to 0.67 and the Ratio OD(Variant)/OD(WT) was 0.884.

Turning to B4, the OD450 nm turned out to be 0.765 and the Ratio OD(Variant)/OD(WT) was 0.976.

As for B5, the OD450 nm stood at 0.672 and the Ratio OD(Variant)/OD(WT) is 0.858.

In the case of B6, the OD450 nm was 0.533 and 0.515; the Ratio OD(Variant)/OD(WT) is 1.06 and 1.02.

Turning to B7, the OD450 nm is 0.776 and the Ratio OD(Variant)/OD(WT) turned out to be 0.99.

As to B8, the OD450 nm is 0.727 and the Ratio OD(Variant)/OD(WT) came to 0.923.

In the case of B9, the OD450 nm was 0.634 and the Ratio OD(Variant)/OD(WT) was 1.28.

Turning to B10, the Ratio OD(Variant)/OD(WT) is 1.14 and 1.11 (2×) and 0.956.

On to B11, for which the OD450 nm worked out at 0.766 and the Ratio OD(Variant)/OD(WT) was 0.973.

Consider B12, for which the OD450 nm was determined as 0.769 and the Ratio OD(Variant)/OD(WT) was 0.981.

Regarding B13, the OD450 nm was 0.561 and 0.551 and 0.494; the Ratio OD(Variant)/OD(WT) was 1.04 and 1.02 and 0.915.

For B14, the OD450 nm was 0.545 and 0.452 and 0.514; the Ratio OD(Variant)/OD(WT) is 1.01 and 0.837 and 0.952.

On to B15, for which the OD450 nm is 0.639 and 0.636; the Ratio OD(Variant)/OD(WT) was 0.811 and 0.808.

Turning to B16, the OD450 nm was 0.567 and the Ratio OD(Variant)/OD(WT) is 1.12.

Turning to B17, the OD450 nm is 0.776 and 0.781; the Ratio OD(Variant)/OD(WT) was 0.985 and 0.992.

For the molecule B18, the OD450 nm was 0.646 and the Ratio OD(Variant)/OD(WT) is 0.825.

Turning to B19, the OD450 nm amounted to 0.769 and the Ratio OD(Variant)/OD(WT) is 0.977.

Take B20: the OD450 nm amounted to 0.727 and the Ratio OD(Variant)/OD(WT) is 0.928.

With B21, the OD450 nm stood at 0.727 and the Ratio OD(Variant)/OD(WT) worked out at 0.928.

As for B22, the OD450 nm was determined as 0.662 and the Ratio OD(Variant)/OD(WT) stood at 0.841.

As for B23, the OD450 nm was 0.724 and 0.681 and 0.685; the Ratio OD(Variant)/OD(WT) is 0.919 and 0.865 and 0.87.

Turning to B24, the OD450 nm was found to be 0.784 and the Ratio OD(Variant)/OD(WT) was found to be 0.996.

Consider B25, for which the OD450 nm is 0.744 and 0.74; the Ratio OD(Variant)/OD(WT) was 0.95 and 0.944.

For B26, the OD450 nm was 0.695 and 0.731; the Ratio OD(Variant)/OD(WT) is 0.887 and 0.933.

Regarding B27, the OD450 nm was determined as 0.706 and the Ratio OD(Variant)/OD(WT) turned out to be 0.901.

For the molecule B28, the OD450 nm was 0.775 and the Ratio OD(Variant)/OD(WT) amounted to 0.984.

With B29, the OD450 nm is 0.565 and 0.56; the Ratio OD(Variant)/OD(WT) is 1.12 and 1.11.

Take B30: the OD450 nm is 0.774 and the Ratio OD(Variant)/OD(WT) came out at 0.988.

On to B31, for which the OD450 nm was 0.755 and 0.772 and 0.754; the Ratio OD(Variant)/OD(WT) is 0.964 and 0.985 and 0.962.

Turning to B32, the OD450 nm was found to be 0.637 and the Ratio OD(Variant)/OD(WT) was 0.809.

B33: the OD450 nm is 0.711 and 0.692 and 0.684; the Ratio OD(Variant)/OD(WT) is 0.907 and 0.883 and 0.873.

For the molecule B34, the OD450 nm was 0.53 and 0.488; the Ratio OD(Variant)/OD(WT) is 1.05 and 0.967.

As to B35, the OD450 nm worked out at 0.702 and the Ratio OD(Variant)/OD(WT) stood at 0.891.

For the molecule B36, the OD450 nm turned out to be 0.697 and the Ratio OD(Variant)/OD(WT) amounted to 0.885.

Take B37: the OD450 nm worked out at 0.681 and the Ratio OD(Variant)/OD(WT) was found to be 0.865.
